Experimental findings from patent publication US20180251563A1 are described below.

The chains are these.
B1: SEQ ID NO 37 (designed binder)
chain: MGSWLWFKIFLAEIKYFLEALGGSEAELAAFDFEIHAFHVELFAYKGKGNPEVEVLREVAAEIRWDLQAYRHN
B2: SEQ ID NO 35 (designed binder)
chain: MGSWSEFYNRLDAIESRLLALGGSEAELALFEIQIARFEKVLQAYKGKGNPEVEALRGEARAIFAELYAYRHN
B3: SEQ ID NO 36 (designed binder)
chain: MGSWYEFYNRLYAIEIRLYALGGSEAELAAFEKEIAAFESELQAYKGKGNPEVERLRVRAAKIRVILQAYRHN

The test deals with KIR-Fc. The experiment in a line: phage ELISA, target-Fc against non-specific control. A general note: An ELISA detects its analyte on a solid surface through an enzyme-linked reagent.
As for B1, the ELISA ratio (target to background) amounted to 4.17.
On to B2, for which the ELISA ratio (target to background) stood at 8.4.
Next, B3: 4.24.
